What was measured:
[1] = molecular target: T1, truncated peptide KPGVISVMG; test: screening of hybridoma cell lines against peptides
T1 peptide: KPGVISVMG
Procedure: (§1) Mouse spleen cells were fused with SP2/0 myeloma fusion partner cells. The fusion cells were raised in 96-well plates and incubated in the CO2-incubator. Here standard limited dilution was used to promote monoclonal growth. Cell lines specific to the selection peptide and without cross-reactivity to either elongated peptide ([…] (SEQ ID No: 2), Chinese Peptide Company, China) or truncated peptide ([…] (SEQ ID No: 3), American Peptide Company, USA) were selected and sub-cloned. At last the antibodies were purified using an IgG column.

[2] = molecular target: T2, elongated peptide KPGVISVMGTA; test: screening of hybridoma cell lines against peptides
T2 peptide: KPGVISVMGTA
Procedure: as §1

[3] = molecular target: T3, KPGVISVMGT, last 10 amino acids of the type VI collagen α3 chain (selection / immunogenic peptide); test: screening of hybridoma cell lines against peptides
T3 construct: also called PRO-C6
T3 peptide: KPGVISVMGT
Procedure: as §1

[4] = molecular target: T4, CPTGPQNYSP, C-terminal neo-epitope sequence of the α1 chain PIIINP (free calibrator peptide); test: hybridoma screening, indirect ELISA on streptavidin-coated plates with the free peptide as calibrator
T4 construct: also called PRO-C3
T4 peptide: CPTGPQNYSP
Procedure: A monoclonal antibody specific for Pro-C3 was developed as described in WO 2014/170312 (Nordic Bioscience, incorporated herein by reference) using sequence 145′-[…]-′153 (SEQ ID No: 14) of the α1 chain PIIINP as an immunogenic peptide. Briefly, generation of monoclonal antibodies was initiated by subcutaneous immunization of 4-5 week old Balb/C mice with 200 μl emulsified antigen and 50 μg PIIINP neo-epitope C-terminus sequence (OVA-CGG-[…] (SEQ ID No: 32)) using Freund's incomplete adjuvant. The immunizations were repeated every 2 weeks until stable serum titer levels were reached. The spleen cells were fused with SP2/0 myeloma cells to produce hybridoma, and cloned in culture dishes using the semi-medium method. The supernatants were screened for reactivity against calibrator peptide and native material in an indirect ELISA using streptavidin-coated plates. Biotin-CGG-[…] (SEQ ID No: 33) was used as screening peptide, while the free peptide […] (SEQ ID No: 14) was used as calibrator to test for further specificity of clones.

B1: monoclonal antibody specific for Pro-C6 (monoclonal antibody 10A3) (antibody, mouse IgG1, kappa, V domains shown)
VH: EVQLQQSGPVMVKPGTSVKTSCKASGYTFTDFNMNWVKQSHGKSLEWIGAINPHNGATSYNQKFSGKATLTVDKSSSTAYMELNSLTSDDSAVYYCARWGNGKNSWGQGTTLTVSS
VL: DVVMTQTPLSLPVNLGDQASISCRSSQRIVHSNGITFLEWYLQKPGQSPKLLIYRVSNRFSGVPDRFSGSGSGTDFTLKISRVEAEDLGLYYCFQGSHVPLTFGAGTRLELKR
notes: Mouse IgG1 / kappa from a hybridoma; the antibodies were purified on an IgG column afterwards; also called PRO-C6 antibody
B1: no binding [1]; no binding [2]; binds [3].

B2: monoclonal antibody specific for Pro-C3 (monoclonal antibody NB61N-62) (antibody, V domains shown)
VH: EVQLQQSGPEVLKPGASVKMSCKASGYTFINYVIHWLKQKAGQGPEWIGYMNPYNDVPKNNAKFRGKARLTSDRSSTTAYMELNSLTSEDSAVYYCARGGFFGPLSYWGQGTLVTVSA
VL: DVLMTQTPLSLSVSLGDQASISCRSSQNIVYSNGDTYFEWYLQKPGQSPKLLIYKVSQRFSGVPDRFSGSGSGTDFTLKISRVETEDLGVYYCFQGAHDPPAFGGGTKLELKR
notes: Mouse IgG2A / kappa; also called PRO-C3 antibody
B2: binds [4].
